Blank lines part the entries; values can stand above or below the binder they belong to.
Target: recombinant human EPHA2 ectodomain (Homo sapiens, UniProt P29317)
Assay: BLI

Sequence of recombinant human EPHA2 ectodomain (P29317 24-537): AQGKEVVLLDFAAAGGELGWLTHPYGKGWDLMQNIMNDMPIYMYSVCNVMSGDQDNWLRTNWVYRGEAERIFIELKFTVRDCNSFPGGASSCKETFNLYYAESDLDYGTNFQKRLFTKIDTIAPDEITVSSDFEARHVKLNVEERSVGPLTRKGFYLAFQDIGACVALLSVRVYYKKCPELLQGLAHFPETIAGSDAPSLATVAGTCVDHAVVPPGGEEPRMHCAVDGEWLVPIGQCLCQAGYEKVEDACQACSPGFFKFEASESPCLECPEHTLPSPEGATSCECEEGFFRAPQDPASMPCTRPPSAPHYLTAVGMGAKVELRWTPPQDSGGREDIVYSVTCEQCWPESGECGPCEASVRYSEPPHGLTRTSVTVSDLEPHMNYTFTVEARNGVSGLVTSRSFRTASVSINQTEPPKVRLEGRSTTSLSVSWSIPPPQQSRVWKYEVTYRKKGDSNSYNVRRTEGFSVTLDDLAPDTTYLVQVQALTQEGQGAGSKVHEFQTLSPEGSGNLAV

binding result: binds
B1: anti-EPHA2 Fab A2-3 (Fab, V domains shown)
VH: EVQLVESGGGLVQPGGSLRLSCAASGFNISYYYMHWVRQAPGKGLEWVASIYPSYSYTSYADSVKGRFTISADTSKNTAYLQMNSLRAEDTAVYYCARGGVVSWAHPAASYYVYGAMDYWGQGTLVTVSS
VL: DIQMTQSPSSLSASVGDRVTITCRASQSVSSAVAWYQQKPGKAPKLLIYSASSLYSGVPSRFSGSRSGTDFTLTISSLQPEDFATYYCQQAVWSGYPITFGQGTKVEIK

binding result: binds
B2: anti-EPHA2 Fab A2-4 (Fab, V domains shown)
VH: EVQLVESGGGLVQPGGSLRLSCAASGFNISSYYMHWVRQAPGKGLEWVASISPSYSYTYYADSVKGRFTISADTSKNTAYLQMNSLRAEDTAVYYCARGWSFVGMDYWGQGTLVTVSS
VL: DIQMTQSPSSLSASVGDRVTITCRASQSVSSAVAWYQQKPGKAPKLLIYSASSLYSGVPSRFSGSRSGTDFTLTISSLQPEDFATYYCQQGAPWSPITFGQGTKVEIK
